Test results as given in the Immune Epitope Database (IEDB).
Blank lines part the entries; values can stand above or below the sequence they belong to.

Tests used:
HLA-A*26:02 [1] = assay: IEDB peptide-MHC binding, purified MHC/competitive/fluorescence; filed as Kd, often an IC50 or EC50 that approximates it; ≥ and ≤ were set here for values at or beyond the usual limits of such assays; conditions: source organism: Orthomarburgvirus marburgense
HLA-A*26:03 = assay: as above; conditions: source organism: Orthomarburgvirus marburgense
HLA-B*39:01 = assay: as above; conditions: source organism: Orthomarburgvirus marburgense
HLA-B*15:17 [2] = assay: as above; conditions: source organism: Orthomarburgvirus marburgense
HLA-B*15:01 [3] = assay: as above; conditions: source organism: Orthomarburgvirus marburgense
HLA-A*26:01 [4] = assay: as above; conditions: source organism: Orthomarburgvirus marburgense
HLA-A*68:02 = assay: IEDB peptide-MHC binding, purified MHC/direct/fluorescence; filed as Kd, often an IC50 or EC50 that approximates it; ≥ and ≤ were set here for values at or beyond the usual limits of such assays
HLA-B*07:02 = assay: as above
HLA-B*73:01 = assay: as above; conditions: source organism: Marburg virus - Musoke, Kenya, 1980
HLA-B*58:01 = assay: as above
HLA-A*69:01 = assay: as above
HLA-B*27:05 = assay: as above
HLA-B*48:01 = assay: as above
HLA-B*18:01 = assay: as above; conditions: source organism: Marburg virus - Musoke, Kenya, 1980
HLA-B*08:02 = assay: as above
HLA-A*01:01 = assay: as above
HLA-B*15:09 = assay: as above; conditions: source organism: Ravn virus - Ravn, Kenya, 1987
HLA-A*11:01 = assay: as above
HLA-B*57:01 = assay: as above
HLA-A*31:01 = assay: as above
HLA-A*02:01 [5] = assay: IEDB peptide-MHC binding, purified MHC/competitive/fluorescence; filed as Kd, often an IC50 or EC50 that approximates it; ≥ and ≤ were set here for values at or beyond the usual limits of such assays; conditions: source organism: Mycobacterium tuberculosis variant bovis BCG str. Pasteur 1173P2
HLA-B*46:01 = assay: IEDB peptide-MHC binding, purified MHC/direct/fluorescence; filed as Kd, often an IC50 or EC50 that approximates it; ≥ and ≤ were set here for values at or beyond the usual limits of such assays; conditions: source organism: Mycobacterium tuberculosis
HLA-A*26:02 [6] = assay: as above; conditions: source organism: Mycobacterium tuberculosis str. Haarlem
HLA-B*40:01 = assay: as above
HLA-B*08:01 = assay: as above
HLA-B*15:17 [7] = assay: as above; conditions: source organism: Mycobacterium tuberculosis
HLA-B*15:01 [8] = assay: as above
HLA-B*08:03 = assay: as above; conditions: source organism: Mycobacterium tuberculosis str. Haarlem
HLA-A*02:50 = assay: IEDB peptide-MHC binding, purified MHC/competitive/fluorescence; filed as Kd, often an IC50 or EC50 that approximates it; ≥ and ≤ were set here for values at or beyond the usual limits of such assays
HLA-A*02:01 [9] = assay: IEDB peptide-MHC binding, purified MHC/direct/fluorescence; filed as Kd, often an IC50 or EC50 that approximates it; ≥ and ≤ were set here for values at or beyond the usual limits of such assays
HLA-A*03:01 = assay: as above
HLA-A*24:03 = assay: as above
HLA-A*26:01 [10] = assay: as above
HLA-B*44:02 = assay: as above; conditions: source organism: Yersinia pestis
HLA-A*02:11 = assay: as above; conditions: source organism: Burkholderia mallei ATCC 23344
HLA-C*04:01 = assay: as above
HLA-B*15:02 = assay: IEDB peptide-MHC binding, purified MHC/competitive/fluorescence; filed as Kd, often an IC50 or EC50 that approximates it; ≥ and ≤ were set here for values at or beyond the usual limits of such assays
HLA-A*23:01 = assay: as above; conditions: source organism: Cryptosporidium parvum Iowa II
HLA-B*35:01 = assay: IEDB peptide-MHC binding, purified MHC/direct/fluorescence; filed as Kd, often an IC50 or EC50 that approximates it; ≥ and ≤ were set here for values at or beyond the usual limits of such assays; conditions: source organism: Corynebacterium glutamicum
[11] = source organism: Marburg virus - Musoke, Kenya, 1980
[12] = source organism: Mycobacterium tuberculosis
[13] = source organism: Mycobacterium tuberculosis str. Haarlem
[14] = source organism: Haemophilus influenzae
[15] = source organism: Yersinia pestis
[16] = source organism: Burkholderia mallei
[17] = source organism: Corynebacterium efficiens
[18] = source organism: Corynebacterium glutamicum

Sequence: ARHGEYAPF
Kd (HLA-A*26:02 [1]): 0.738 µM
Kd (HLA-A*26:03): ≥ 20 µM
Kd (HLA-B*39:01): 1.09 µM
Kd (HLA-B*15:17 [2]): ≥ 20 µM
Kd (HLA-B*15:01 [3]): 3.34 µM
Kd (HLA-A*26:01 [4]): 4 µM
Kd (HLA-A*68:02; [11]): ≥ 20 µM
Kd (HLA-B*07:02; [11]): ≥ 20 µM
Kd (HLA-B*73:01): ≥ 20 µM
Kd (HLA-B*58:01; [11]): ≥ 20 µM
Kd (HLA-A*69:01; [11]): ≥ 20 µM
Kd (HLA-B*27:05; [11]): 0.168 µM
Kd (HLA-B*48:01; [11]): ≥ 20 µM
Kd (HLA-B*18:01): ≥ 20 µM
Kd (HLA-B*08:02; source organism: Ravn virus - Ravn, Kenya, 1987): ≥ 20 µM
Kd (HLA-A*01:01; [11]): ≥ 20 µM
Kd (HLA-B*15:09): ≥ 20 µM
Kd (HLA-A*11:01; [11]): ≥ 20 µM
Kd (HLA-B*57:01; [11]): ≥ 20 µM
Kd (HLA-A*31:01; [11]): ≥ 20 µM

Sequence: KLVGIELPK
Kd (HLA-A*02:01 [5]): ≥ 20 µM
Kd (HLA-A*68:02; [12]): ≥ 20 µM
Kd (HLA-B*07:02; [12]): ≥ 20 µM
Kd (HLA-B*46:01): ≥ 20 µM
Kd (HLA-A*26:02 [6]): ≥ 20 µM
Kd (HLA-B*58:01; [12]): ≥ 20 µM
Kd (HLA-B*40:01; [12]): ≥ 20 µM
Kd (HLA-A*69:01; [12]): ≥ 20 µM
Kd (HLA-B*08:01; [13]): ≥ 20 µM
Kd (HLA-B*27:05; [12]): ≥ 20 µM
Kd (HLA-B*48:01; [12]): ≥ 20 µM
Kd (HLA-B*15:17 [7]): ≥ 20 µM
Kd (HLA-B*08:02; [13]): ≥ 20 µM
Kd (HLA-A*01:01; [12]): ≥ 20 µM
Kd (HLA-B*15:01 [8]; [12]): ≥ 20 µM
Kd (HLA-B*08:03): ≥ 20 µM
Kd (HLA-A*11:01; [12]): 0.0733 µM
Kd (HLA-B*57:01; [12]): ≥ 20 µM
Kd (HLA-A*31:01; [12]): 6.82 µM

Kd (HLA-A*02:50; source organism: Haemophilus influenzae PittAA): 0.012 µM
Kd (HLA-A*02:01 [9]; [14]): 5.1 µM
Kd (HLA-B*07:02; [14]): ≥ 20 µM
Kd (HLA-A*03:01; [14]): ≥ 20 µM
Kd (HLA-B*58:01; [14]): ≥ 10 µM
Kd (HLA-B*40:01; [14]): ≥ 20 µM
Kd (HLA-A*69:01; [14]): ≥ 20 µM
Kd (HLA-B*08:01; [14]): ≥ 20 µM
Kd (HLA-B*27:05; [14]): ≥ 20 µM
Kd (HLA-A*24:03; [14]): ≥ 20 µM
Kd (HLA-A*01:01; [14]): 5.24 µM
Kd (HLA-B*15:01 [8]; [14]): ≥ 20 µM
Kd (HLA-A*11:01; [14]): ≥ 20 µM
Kd (HLA-A*26:01 [10]; [14]): ≥ 20 µM
Kd (HLA-A*31:01; [14]): ≥ 20 µM
Sequence: LIFPAFFLC

Sequence: LLIDDSFSS
Kd (HLA-A*02:50; source organism: Yersinia pestis Nepal516): 0.0025 µM
Kd (HLA-B*44:02): ≥ 20 µM
Kd (HLA-A*02:01 [9]; [15]): 0.65 µM
Kd (HLA-B*07:02; [15]): ≥ 20 µM
Kd (HLA-A*03:01; [15]): ≥ 20 µM
Kd (HLA-B*58:01; [15]): ≥ 20 µM
Kd (HLA-B*40:01; [15]): ≥ 20 µM
Kd (HLA-A*69:01; [15]): ≥ 20 µM
Kd (HLA-B*08:01; [15]): ≥ 20 µM
Kd (HLA-B*27:05; [15]): ≥ 20 µM
Kd (HLA-A*24:03; [15]): ≥ 20 µM
Kd (HLA-A*01:01; [15]): ≥ 20 µM
Kd (HLA-B*15:01 [8]; [15]): 1.89 µM
Kd (HLA-A*11:01; [15]): ≥ 20 µM
Kd (HLA-A*26:01 [10]; [15]): ≥ 20 µM
Kd (HLA-A*31:01; [15]): ≥ 20 µM

Sequence: MQQAYQCIV
Kd (HLA-A*02:50; source organism: Burkholderia mallei NCTC 10229): 0.0116 µM
Kd (HLA-A*02:01 [9]; [16]): 0.0865 µM
Kd (HLA-A*69:01; [16]): 9.04 µM
Kd (HLA-A*02:11): 0.028 µM

Sequence: MYTRNLLWL
Kd (HLA-A*24:03; source organism: Escherichia coli): 0.0018 µM
Kd (HLA-C*04:01; source organism: Escherichia coli HS): ≥ 20 µM

Sequence: SLYDIITVM
Kd (HLA-B*15:02; source organism: Listeria monocytogenes): ≥ 20 µM

Sequence: TFMGMNVQF
Kd (HLA-A*23:01): 0.0012 µM
Kd (HLA-C*04:01; source organism: Cryptosporidium parvum Iowa II): ≥ 20 µM

Kd (HLA-B*15:02; [17]): ≥ 20 µM
Kd (HLA-A*02:01 [9]; [17]): ≥ 20 µM
Kd (HLA-B*07:02; [17]): ≥ 20 µM
Kd (HLA-A*03:01; [17]): ≥ 20 µM
Kd (HLA-B*58:01; [17]): ≥ 20 µM
Kd (HLA-B*40:01; [17]): ≥ 20 µM
Kd (HLA-A*69:01; [17]): ≥ 20 µM
Kd (HLA-B*08:01; [17]): ≥ 20 µM
Kd (HLA-B*27:05; [17]): ≥ 20 µM
Kd (HLA-B*35:01): 0.383 µM
Kd (HLA-A*01:01; [18]): ≥ 5 µM
Kd (HLA-B*15:01 [8]; [18]): 0.199 µM
Kd (HLA-A*11:01; [17]): ≥ 20 µM
Kd (HLA-A*26:01 [10]; [17]): ≥ 20 µM
Kd (HLA-A*31:01; [17]): ≥ 20 µM
Sequence: VQLQEYDTY
